{"source": "paper PMC10629159", "proteins": {"B1": {"name": "Epithelial membrane protein 3 (EMP3): N47A (protein)", "parent chain": "MSLLLLVVSALHILILILLFVATLDKSWWTLPGKESLNLWYDCTWNNDTKTWACSNVSENGWLKAVQVLMVLSLILCCLSFILFMFQLYTMRRGGLFYATGLCQLCTSVAVFTGALIYAIHAEEILEKHPRGGSFGYCFALAWVAFPLALVSGIIYIHLRKRE"}}, "assay": "BioID2 proximity profile; Myc immunofluorescence", "settings": "glycan lost; control: EMP3 WT bait", "data": [{"protein": "B1", "values": [{"measurement": "localisation_or_trafficking", "result": "no change"}]}]}
